From US20080044436A1, “Method for Screening and Compositions for Treating Cancers” (priority 2004, published 2008) come the findings set out here.

One assay deals with T47-D cells. Put plainly: T47-D cell proliferation (cell counts) with control or TReP-132 siRNA and progesterone. The class given is cell-based, human. To be noted: T47-D transfected control cells, 30 nM progesterone, 4 to 6 days of treatment. On the procedure:
FIG. 3: Induction of TReP-132 by progesterone and suppression of progesterone inhibition of T47-D cell proliferation following TReP-132 knockdown by using small interfering RNA (“siRNA”). (T47-D cells were treated for the indicated times with 30 nM progesterone). Experiments were carried out in triplicate, and values represent the mean ±SD of a representative experiment.
FIG. 3B: Cells transfected with control siRNA or TReP-132 siRNA (400 ng) at 0 and 3 days were recovered at days 2, 4 or 6 and counted. (ns: not significant −*, p<0.05; **, […]; ***, p<0.001).
The sense 5′-[…]-3′ and the antisense 5′-[…]-3′ oligonucleotides were synthesized (Eurogentec) and used to generate double-stranded siRNA specific for TReP-132 (21 bp corresponding to amino acids 861-881 […] the initiation codon of the human TReP-132 gene). […] Transfection was carried out by using the GeneSilencer reagent (Gene Therapy Systems, San Diego, USA) as directed by the manufacturer. Transfection efficiency was verified by FACS analysis (Fluorescence-Activated Cell Sorting) (see below). […] Statistical analyses were carried out with the nonparametric Kruskal-Wallis test.

For a further assay, the system named is HeLa cells. Nature of the assay: Doubling time of reseeded HeLa colonies expressing exogenous TReP-132. The class given is cell-based, human. As to conditions: HeLa cells expressing TReP-132; control pcDNA3 cells 18 hours. How it is done: HeLa cells were seeded in 12-well plates at an initial density of 100,000 cells per well, incubated for 24 hours, then transfected with each of the following plasmids: pcDNA3, pcDNA3-Luc, pcDNA3-SF-1, or pcDNA3-TReP-132, each containing the neomycin resistance gene. The transfections were carried out in triplicate with ExGen 500 (MBI Fermentas, Flamborough, Ontario, Canada) at a ratio of 5 μl of ExGen 500 per 1 μg of plasmid. After 12 hours of transfection, the medium was changed and the cells were incubated for an additional 8 hours. The cells were then trypsinized and transferred to a 100 mm petri dish. After 48 hours, the medium was supplemented with 400 μg/ml of the selection agent G418 (Sigma-Aldrich CA Ltd.). Distinct colonies could be detected after two weeks of selection with G418. The cells were then rinsed with PBS and fixed with a mixture of 10% acetic acid/10% methanol for 15 min, then colored with crystal violet (Sigma-Aldrich CA Ltd.).
The cell proliferation rate was determined by the cellular DNA content using the fluorochorome DABA ([…]). […] Fluorescence was measured on a Perkin-Elmer LS-2B Filter Fluorimeter at an excitation wavelength of 400 nm and an emission wavelength of 508 nm. The DNA content was calculated from a standard curve of known quantities of salmon sperm DNA.

The test system of a further assay is ER. Nature of the assay: GST pull-down, TReP-132 and ER. The class given is binding. To be noted: GST pull-down with 35S-ER. On the procedure:
GST-TReP-132 wt was analyzed in terms of the interaction with the ^35[S]-ER, as described previously.
In order to evaluate the interaction of TReP-132, Sp1, ER and PR, the wt and mutant GST-TReP-132 fusion proteins were expressed, then immobilized on glutathione-Sepharose as described (Frangioni and Neel, 1993; Monte et al., 1998). The ^35S-[Sp1], ^35S-[ER] and ^35S-[PR-B] proteins were synthesized in vitro using a rabbit reticulocyte lysate and T7 RNA polymerase system as directed by the manufacturer (Promega Corporation, Madison, Wis.). Proteins which bound, then detached from the Sepharose after being heated to boiling in SDS buffer were then separated on a 10% SDS-PAGE gel. The gels were stained with Coomassie blue, dried and autoradiographed.

As to `CC(=O)[C@H]1CC[C@H]2[C@@H]3CCC4=CC(=O)CC[C@]4(C)[C@H]3CC[C@]12C` [progesterone, reference compound], the cell proliferation result in the assay with T47-D cells is listed as “inhibited cell proliferation”.

B1: TReP-132: Transcriptional Regulating Protein of 132 kDa, polypeptide comprising SEQ ID NO: 2; here expressed in cells from vectors (protein)
chain: MGDQQLYKTNHVAHGSENLFYQQPPLGVHSGLNHNYGNAVTGGGMDAPQASPISPHFPQDTRDGLGLPVGSKNLGQMDTSRQGGWGSHAGPGNHVQLRGNLANSNMMWGAPAQAEPTDGYQYTYSQASEIRTQKLTSGVLHKLDSFTQVFANQNLRIQVNNMAQVLHTQSAVMDGAPDSALRQLLSQKPMEPPAPAIPSRYQQVPQQPHPGFTGGLSKPALQVGQHPTQGHLYYDYQQPLAQVPVQGGQPLQAPQMLSQHMQQMQQHQYYPPQQQQQAGQQRISMQEIQTQPQQIRPSQPQPPPQQQQPQQLQLQQRQGSMQIPQYYQPQPMMQHLQEQQQQQMHLQPPSYHRDPHQYTPEQAHTVQLIPLGSMSQYYYQEPQQPYSHPLYQQSHLSQHQQREDSQLKTYSSDRQAQAMLSSHGDLGPPDTGMGDPASSDLTRVSSTLPHRPLLSPSGIHLNNMGPQHQQLSPSAMWPQMHLPDGRAQPGSPESSGQPKGAFGEQFDAKNKLTCSICLKEFKNLPALNGHMRSHGGMRASPNLKQEEGEKVLPPQPQPPLPPPPPPPPPPQLPPEAESLTPMVMPVSVPVKLLPPKPSSQGFTNSTVAAPSARDKPASSMSDDEMPVLEIPRKHQPSVPKAEEPLKTVQEKKKFRHRPEPLFIPPPPSYNPNPAASYSGATLYQSQLRSPRVLGDHLLLDPTHELPPYTPPPMLSPVRQGSGLFSNVLISGHGPGAHPQLPLTPLTPTPRVLLCRSNSIDGSNVTVTPGPGEQTVDVEPRINIGLRFQAEIPELQDISALAQDTHKATLVWKPWPELENHDLQQRVENLLNLCCSSALPGGGTNSEFALHSLFEAKGDVMVALEMLLLRKPVRLKCHPLANYHYAGSDKWTSLERKLFNKALATYSKDFIFVQKMVKSKTVAQCVEYYYTWKKIMRLGRKHRTRLAEIIDDCVTSEEEEELEEEEEEDPEEDRKSTKEEESEVPKSPEPPPVPVLAPTEGPPLQALGQPSGSFICEMPNCGAVFSSRQALNGHARIHGGTNQVTKARGAIPSGKQKPGGTQSGYCSVKSSPSHSTTSGETDPTTIFPCKECGKVFFKIKSRNAHMKTHRQQEEQQRQKAQKAAFAAEMAATIERTTGPVGAPGLLPLDQLSLIKPIKDVDILDDDVVQQLGGVMEEAEVVDTDLLLDDQDSVLLQGDAEL
Turning to B1, the doubling time with HeLa cells turned out to be 30 h. Moreover, the “interaction with ER” value in the assay with ER was “interact”.
